From the nanobody polyreactivity screen of Harvey et al. (2022)

Assay: yeast display, Sf9 membrane polyspecificity reagent, FACS + sequencing; frameworks hold sequencing errors
How it was run: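 Galactose induction of a Saccharomyces cerevisiae BJ5465 synthetic nanobody display library ran 36–48 hours. The cells were then stained for 1 hour at 4 °C with 10% biotinylated, detergent-solubilized Sf9 membrane reagent, pulled down on streptavidin microbeads and FACS-sorted into low and high (top ~1%) gates on expression and reagent-binding fluorescence. Labels for polyreactivity follow the gate of origin.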

Sequence	polyreactivity (PSR sort gate)
QVQLVESGGGLVQAGGSLRISCAASGSTSTGMTWDGIDRRLGRKELVAGIRSAGSTNYADSVKGRFTISRDNAKNTVYLQMNSLKPEDTAGYYCAKDYRWVWRKYGYWGQGTQVTLSS	low polyreactivity
QVQLVESGGGLVQAGGSLRISCAASGSTYYNAMGWYRQAPGKERELVAAFRFRSGSTYYADSVKGRFTISRDNAKNTVYLQMNSLKPEDTAVYYCAADYKRSWRYAYNYWGQGTQVTVSS	high polyreactivity
QVQLVESGGGLVQAGGSLRISCAASGSTYYTNTMGWYRQAPGKERELVADINGSGGSTYYADSVKGRITISRDNAKNTVYLQMNSLKPEDTAVYYCAAGSLQVAIRYDYWGQGTQVTVSS	low polyreactivity
QVQLVESGGGLVQAGGSLRISCAASGYMFPWYTMGWYRQAPGKERELVAAITSGSSTYYADSVKGRFTISRDNAKNTVYLQMNSLKPEDTAVYYCNAYDDAYRLYRLRGRDYWGQGTQVTVSS	low polyreactivity
QVQLVESGGGLVQAGGSLRISCAASGYTFLAYAMGWYRQAPGKERELVAAISRSGVSTYYADSVKGRFTISRDNAKNTVYLQMYSLKTEYTAVYYFNARSGRQLARYGYWGHGTQVTVSS	high polyreactivity
QVQLVESGGGLVQAGGSLRISCAASRSTFGIYAMGWYRQAPGKERELVAAISFRCGRTYYADSVKGRFTISRDNAKNTVYLQMISLKPEDNAVYYCAATWYWGNAYWGQGTQVTVSS	low polyreactivity
QVQLVESGGGLVQAGGSLRISCAASVSTFDINTMGWYRQAPGKEREFVAAITDSDDSTYYADSVKGRFTISRDNAKNTVYLQMNSLKPEDSAVYYCAADRSHAYYRKNRVDYWGQGTQVTVSS	low polyreactivity
QVQLVESGGGLVQAGGSLRISCAATGIIFIGYAMGWYRQAPGKERELVAAITRSGVSTYYADSVKGRFTISRDNAKNTVYLQMNSLKPEDTAVYYCAARYFGEKYSHGFDYWGQGTQVTVSS	low polyreactivity
QVQLVESGGGLVQAGGSLRISCADSGSIFHPNAMGWYRQAPGKERELVAAISIGGDTYYADSVKGRFTISRDNAKNTVYLQMNSLKPEDTAVYYCAVTYVGHVYEYYYWGQGTQVTVSS	low polyreactivity
QVQLVESGGGLVQAGGSLRISCAGSGSIFSRNAMGWYSQAPGTERELVAAITGSGSSTYYADSVKGRFTISRDNAKNTVYLQMNSLKPEDTAGYYCNAARVYLSEWGQGTQGTVSS	high polyreactivity
QVQLVESGGGLVQAGGSLRISCASSGRTFWGNAKGRYRQAPGKERELVAGITKSGGTTYADSVKGRFTISRDNAKKTVYLQMNSLKPEDTAVYYCNAVRWQKGDYWGQGTQVTVSS	high polyreactivity
QVQLVESGGGLVQAGGSLRISCASSGSIFYLNAMGWYRQAPGKERELVAAISRRGGTTSYADSVKGRFTISRDNAKNTVFLQMNSLKPEDTAVYYCAKRTKPSKNYYYWGQGTQVTVSS	high polyreactivity
QVQLVESGGGLVQAGGSLRISCASSVRILGVYFMGWYRQAPGKERELVAAISGGGRTNYADSVKGRFTISRDNAKNTVYFQMNRLNPEDTAVYYCNAERPYQFYQCIYSWYYYWGQGTQVTVSS	low polyreactivity
QVQLVESGGGLVQAGGSLRISCDASGRTFYWNAMGWYRQAPGKEREFVAAITNTAVSTYYADSVKGRFTISRDNAKNTVYLQMNSLKPEATAVYYCAKSGNAGYRTYLRDYWGQGSQVTVSS	low polyreactivity
QVQLVESGGGLVQAGGSLRISFAASGSTFDIYVMGWYRQAPGKERELVAAISRVGNTSYADSVKGRFTISRDNAKNTVYLQMNSLKPEDKAVYYCAADAPSWYDRQYDYWGKGTQVTVSS	low polyreactivity
QVQLVESGGGLVQAGGSLRISSAASGIIFPWYYMGWYRQAPGKESELVAGITDGGDTTYADSVKWRFTISRDYAMNNVYLEMNRLKPEDTAVYYCAADIGYGYWHFDYLGQGTQVTVSS	low polyreactivity
QVQLVESGGGLVQAGGSLRISSAASGSTNYPNAMGWYRQAPGKERELVAVIRWSGGSTYYADSVKGRFTISRDNAKNTVYLQMNSLKPEDTAVYYCNADFYRVAYLRRYSHFDYWGQGTQVTVSS	high polyreactivity
QVQLVESGGGLVQAGGSLRITCAASGSIYKSNAMGWYRQAPGKEREFVAAITWSGGSTYYADSVKGRFTISRDNAKNTVDLKMNSLKPEDTAVCYCAATQYRSDGWRYDYWGQGTQVTVSS	high polyreactivity
QVQLVESGGGLVQAGGSLRITCAASGYTFGAYSMGWYRQAPWKERELVAAITVRAGRTYYADSVKGRFTISRDNAKNTVYLQMNSLKPEDTAVYYCAADGYLLYVQHPNGRRYDYWGQGTQVTVSS	low polyreactivity
QVQLVESGGGLVQAGGSLRITCAGSGRTFFGYAMGWYRQAPGKERELVAAITRGGSTNYADSVKGRFTISLDNGKNTLYLQMNSLKPEDSAVYYCAVGVPTTFKNRRYFRMDYWGQGTQGTVSS	high polyreactivity
QVQLVESGGGLVQAGGSLRLICAASGATFVDYTMGWYRQAPGKERELVAAITVSAGSTYYADSVKGRFTISRDNAKNTVYLQMNSLKPEDTAVYYCAKATSSFYHYRYDYWGQGTQVTVSS	low polyreactivity
QVQLVESGGGLVQAGGSLRLICAASGFIFGLNAIGWYRQAPGKERELVAAIRSASSTNYADSVKGRFTISRDNAKNTVYLQMNSLKPEDTAVYYCAAEDFTRQFEYWGQGTQVTVSS	low polyreactivity

Sequence	polyreactivity (PSR sort gate)
QVQLVESGGGLVQAGGSLRLICAASGFIFHSYAMGWYRQAPGKERELVARITIGDSTKYADSVKGRFTISRDNAKNTVYLQMNSLKPEDTAVYYCAADGWRYIAYYQGFRRMNYWGQGTQVTVSS	high polyreactivity
QVQLVESGGGLVQAGGSLRLICAASGFIFKGYAMGWNRQAPGKERELVAAISSSGTSTYYADSVKGRFTISRDNAKNTVYLQMNSLKPEDTAVYYCAADLASYAYRYDFWGQGTQVTVSS	high polyreactivity
QVQLVESGGGLVQAGGSLRLICAASGFIFNKNAMGWYRQAPGKERELVAAISQIGGTTYYADSVKGRFTISRVNAKNTVYLQMNSLKPEDTSVYYCAASRRVQSDYWGQGTQVTVSS	high polyreactivity
QVQLVESGGGLVQAGGSLRLICAASGFIFPQNAMGWYRQAPGKERELLAAISKRGGSTYYADSVKGRFTISRDYAKNTVYLQMNSLKPEDTAVYYCAAGYRTRRGLGYYYWGQGTQVTVSS	high polyreactivity
QVQLVESGGGLVQAGGSLRLICAASGFIFTTYAMGWYRQAPGKEREVVAAISSSGTTYYADSVKGRFTISRDNAKNTVYLQMNSLKPEDTAVYYCAARRQFRSYQQRLYYWGQGTQVTVSS	low polyreactivity
QVQLVESGGGLVQAGGSLRLICAASGFIFVYYVMGWYRQAPGKERELVAAITQSGGSTYYADSVKGRFTISRDNAKNTVYLQMNSLKPEDTAVYYCAAYRRTTGGGYDYWGQGTQVTVSS	high polyreactivity
QVQLVESGGGLVQAGGSLRLICAASGFIFYYYAMGWYRQAPGKERQVVAAITWSGGITYYADSVKGRFTISRDNAKNTVYLQMISMKPEDTAVYYCATGYEYYGYSGSRRDYWGQGTQVTVSS	low polyreactivity
QVQLVESGGGLVQAGGSLRLICAASGFILRRYAMGWFRPAPGKEREFVAAIRYRGGNTYYADSVKGRFTLSRDTAKNTVYFQMNSLNPEDTAVYYCAADWSEKYEYWRQGTQVTVSS	high polyreactivity
QVQLVESGGGLVQAGGSLRLICAASGFIYSYYAMGWYRQAPGKERELVAVISGSGGGTYYAVSVKGRFRISRDNAKNTVYLQMNSLKPEDTAVYDFAARNSGGTTKYYYWGQGTQVTVSS	high polyreactivity
QVQLVESGGGLVQAGGSLRLICAASGFTFRSYAMGWYRQAPGKERELVAAITSTGGRTYYADSVKGRFTISRDNAKNTVYLQMNSLKPEDTAVYYCAAGRKHYAPVHFGYWGQGTQVTVSS	high polyreactivity
QVQLVESGGGLVQAGGSLRLICAASGFTFYNYAKGWYRQAPGKERQLVAAISTSGGSTYYADSVKGRFTISRDNAKNTVYLQMNSLKPEDTAVYYCAAQATAYSYAYYYWGQGTQVTVSS	low polyreactivity
QVQLVESGGGLVQAGGSLRLICAASGFTINYYVMGWYRQAPGKERELVAAISGRGGSTYYADSVTGRFTISRDNAKNTVYLQMNSLNPEETAVYYCNKVFSIPWQGVRFDFWGQGTQVTVSS	high polyreactivity
QVQLVESGGGLVQAGGSLRLICAASGGIFYFNAMGWYRQAPGKERELVASITWSGGNTYYADSVKGRFTISRDNAKNTVYLQMNSLKPEDTAVYYCAADTQEYRPTYDYWGQGTQVTVSS	low polyreactivity
QVQLVESGGGLVQAGGSLRLICAASGIFASYAMGWYRQAPGKERELVAAIRSSGGRTYYADSVKGRFTISRDNAKNTVYLQMNSLKPEDTAVYYCAVASGQSFYWGQGTQVTVSS	high polyreactivity
QVQLVESGGGLVQAGGSLRLICAASGIIFNHNAMGWYRQAPGKERELVAAITLSGGTTYYADSVKGRFTISRDNAKNTVYVQMNSLKPEDTALYYCATRSYILGWRYDYWGQGTQVTVSS	high polyreactivity
QVQLVESGGGLVQAGGSLRLICAASGIIFRYYAMGWYRQAPGKERELVASISRGGSTYYADSVKGRFTISRDNAKNTVYLQMNSLKPEDTAVYYCAADVYPVYLYGYEYCGQGTQVTVSS	high polyreactivity
QVQLVESGGGLVQAGGSLRLICAASGITFAVYAMGWYSQAPGKERELVAASSVSGGSTYYADSVKGRFTISRDNAKNTVYLQMNSLKPEATAVYYGAADRYGHFGDWGQGTQVTVSS	high polyreactivity
QVQLVESGGGLVQAGGSLRLICAASGITFLQYARGWYRQATGKERELVAVISRGSRTYYADSVKGRFTISRDNAKNTFYLQMNSLKPEDTAVYYCAAVRGLAVGYDYWGQGTQVTVSS	high polyreactivity
QVQLVESGGGLVQAGGSLRLICAASGITFLRYAMGWYRQAPGKERELVAAISTRGGSTYYADSVKGRFTISRDNAKNTVYLQMNSLKPEDTAVYYCAAAGVTGSYGGKGRWYDFWGQGSQVTVSS	high polyreactivity
QVQLVESGGGLVQAGGSLRLICAASGITLWTYAMGWYRQAPGKERELVAAIRRGGSTYYADSVKGRFTISRDNAKYTVFLQMNSLKPEDTAVYYCNTVSFYPYYYWGQGTQVTVSS	high polyreactivity
QVQLVESGGGLVQAGGSLRLICAASGITYDQNAMGWYRQAPGKDRDLVAAITRGSSTNYADSVKGRVTISRDNAKNTVYLKMNSVKPEDTAVYYCAAAVLGSSKSEVDPDRPEYYYWGQGTQVTVSS	low polyreactivity
